{"source": "paper PMC10949841", "key": {"[1]": {"target": "HAdV-C5 hexon labeled with AlexaFluor594 (human adenovirus C5 (HAdV-C5)) (UniProt P04133)", "sequence (P04133 whole entry)": "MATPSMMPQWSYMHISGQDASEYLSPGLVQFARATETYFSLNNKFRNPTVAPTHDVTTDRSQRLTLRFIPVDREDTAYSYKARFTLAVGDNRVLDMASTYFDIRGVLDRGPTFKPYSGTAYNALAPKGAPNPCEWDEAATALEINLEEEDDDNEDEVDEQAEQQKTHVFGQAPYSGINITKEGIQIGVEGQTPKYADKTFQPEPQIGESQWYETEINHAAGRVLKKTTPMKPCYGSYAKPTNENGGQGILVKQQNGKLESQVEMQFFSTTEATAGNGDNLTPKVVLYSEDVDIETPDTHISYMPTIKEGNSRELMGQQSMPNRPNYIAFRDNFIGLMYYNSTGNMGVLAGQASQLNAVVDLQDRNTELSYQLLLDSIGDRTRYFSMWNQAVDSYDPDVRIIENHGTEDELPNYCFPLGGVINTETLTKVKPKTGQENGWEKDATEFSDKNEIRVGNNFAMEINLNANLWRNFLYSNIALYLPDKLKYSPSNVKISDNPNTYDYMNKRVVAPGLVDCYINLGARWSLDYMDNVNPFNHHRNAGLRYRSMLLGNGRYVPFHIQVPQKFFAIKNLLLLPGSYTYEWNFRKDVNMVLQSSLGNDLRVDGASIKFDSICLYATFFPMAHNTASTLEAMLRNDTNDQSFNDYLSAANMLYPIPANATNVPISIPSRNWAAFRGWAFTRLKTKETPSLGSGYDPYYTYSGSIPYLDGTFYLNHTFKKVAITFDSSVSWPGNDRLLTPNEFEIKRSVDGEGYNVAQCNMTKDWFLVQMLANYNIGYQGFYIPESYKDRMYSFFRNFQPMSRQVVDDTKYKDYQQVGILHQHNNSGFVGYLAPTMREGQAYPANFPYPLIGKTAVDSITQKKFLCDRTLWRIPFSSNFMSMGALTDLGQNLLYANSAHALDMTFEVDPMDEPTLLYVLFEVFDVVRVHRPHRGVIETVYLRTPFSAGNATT", "experiment": "MST; hexon labeled with AlexaFluor594 at constant amount, 16 concentrations of hLF or hLF mutant (1:1 serial dilution); 20 mM HEPES pH 7.2, 5 mM NaCl, 0.05% Tween 20; 25°C; Monolith NT.115; n = 2"}, "[2]": {"target": "HAdV-C5 hexon (human adenovirus C5 (HAdV-C5)) (UniProt P04133)", "sequence (P04133 whole entry)": "as above", "experiment": "native MS; 0.5 µM hexon:hLF complex purified in buffer D, exchanged into and diluted with 20 mM ammonium acetate pH 7.0; nanoelectrospray, Orbitrap Q Exactive UHMR"}, "[3]": {"target": "HAdV-C5 hexon (human adenovirus C5 (HAdV-C5)) (UniProt P04133)", "experiment": "single-particle cryo-EM, 2D class averages; freshly purified hexon:hLF complex (1 mg/mL) on Au Quantifoil R1.2/1.3 grids, Talos Arctica; top and bottom views only, no 3D reconstruction; 2D classes used to refine a hybrid model"}, "[4]": {"target": "HAdV-C5 hexon (human adenovirus C5 (HAdV-C5)) (UniProt P04133)", "experiment": "native MS; 0.5 µM hexon:hLF complex purified in buffer D, exchanged into ammonium acetate pH 7.0 and diluted with water to 5.85 mM ammonium acetate; nanoelectrospray, Orbitrap Q Exactive UHMR"}}, "note": "Where “and” joins values, the source holds several entries; their conditions need not be identical. Equal values may be shown once."}
{"substance": "hLF mut7 (N673A/S678A) (natural protein)", "values": [{"measurement": "reduction of binding affinity against WT hLF", "setting": "[1]", "value": 40, "unit": "%"}]}
{"substance": "hLF mut5 (R24S/R27A/K28A/R30A) (natural protein)", "values": [{"measurement": "affinity relative to WT hLF", "setting": "[1]", "value": "< 20", "unit": "%"}]}
{"substance": "hLF mut8 (E687A/K691A) (natural protein)", "values": [{"measurement": "reduction of binding affinity against WT hLF", "setting": "[1]", "value": 70, "unit": "%"}]}
{"substance": "human lactoferrin (hLF), wild type (natural protein)", "values": [{"measurement": "stoichiometry N (hLF per hexon trimer)", "setting": "[2]", "value": 1}, {"measurement": "stoichiometry N (hLF per hexon trimer)", "setting": "[3]", "value": "2 and 1"}, {"measurement": "stoichiometry N (hLF per hexon trimer)", "setting": "[4]", "value": "1 and 2"}]}
